Laboratory results as given in patent US20130224202A1.

What follows are binders tested against human prominin-1 expressed in E. coli as a 6*HIS fusion protein (human) (UniProt O43490) (assay: phage ELISA on plate-coated human prominin-1, HRP-conjugated anti-M13).

Binder | A450 [A450]
scFv clone No. 4, displayed on phage (scFv) scFv: AQAAELDIVLTQSPAIMSASPGEKVTISCSASSSVGYMYWYQQKPGSSPKPWIYRPSNLASGVPARFSGSGSGTSYSLTISSMEAEDAATYYCQQYHSYPPTFGAGTKLELKSSGGGGSGGGGGGSSRSSLEVKLVESGPELKKPGETVKISCKASGYTFTDYSMHWVNQAPGKGLKWMGWINTETGEPSYADDFKGRFAFSLETSASTAYLQINNLKNEDTATYFCATDYGDYFDYWGQGTTLTVSSAKTTPPSVTSGQ | 1
scFv clone No. 5, displayed on phage (scFv) scFv: AQAAELDIVLTQSPAIMSASPGEKVTISCSASSSVSYMYWYQQKPGSSPKPWIYRTSNLASGVPARFSGSGSGTSYSLTISSMEAEDAATYYCQQYHSYPPTFGAGTKLELKSSGGGGSGGGGGGSSRSSLEVKLVESGPELKKPGETVKISCKASGYTFTDYSMHWVNQAPGKGLKWMGWINTETGEPSYADDFKGRFAFSLETSASTAYLQINNLKNEDTATYFCATDYGDYFDYWGQGTTLTVSSAKTTPPSVTSGQAGQ | 1.3
scFv clone No. 6, displayed on phage (scFv) scFv: AQAAELDIVLTQSPAIMSASPGEKVTISCSASSSVSYMYWYQQKPGSSPKPWIYRPSNLASGVPARFSGSGSGTSYSLTISSMEAEDAATYYCQQYHSYPPTFGAGTKLELKSSGGGGSGGGGGGSSRSSPEVMLVESGPELKKPGETVKISCKASGYTFTDYSMHWVNQAPGKGLKWMGWINTETGEPSYADDFKGRFAFSLETSASTAYLQINNLKNEDTATYFCATDYGDYFDYWGQGTTLTVSSAKTTPPSVTSGQAGQ | 1.3
scFv clone No. 11, displayed on phage (scFv) scFv: AQAAELDIVLSQSPAIMSASPGEKVTISCSASSSVSYMYWYQQKPGSSPKPWIYRTSNLASGVPARFSGSGSGTSYSLTISSMEAEDAATYYCQQYHSYPPTFGAGTKLELKSSGGGGSGGGGGGSSRSSLEVKLVESGPELKKPGETVKISCKASGYTFTDYSMHWVNQAPGKGLKWMGWINTETGEPSYADDFKGRFAFSLETSASTAYLQINNLKNEDTATYFCATDYGDYFDYWGQGTTLTVSSAKTTPPSVTSGQAGQ | 1.4
scFv clone No. 22, displayed on phage (scFv) scFv: AQAAELDIVLTQSPAIMSASPGEKVTISCSASSSVSYMYWYQQKPGSSPKPWIYRPSNLASGVPARFSGSGSGTSYSLTISSMEAEDAATYYCQQYHSYPPTFGAGTKLELKSSGDGGSGGGGGGSSRSSLEVKLVESGPELKKPGETVKISCKASGYTFTDYSMHWVNQAPGKGLKWMGWINTETGEPSYADDFKGRFAFSLETSASTAYLQINNLKNEDTATYFCATDYGDYFDYWGQGTTLTVSSAKTTAPSVTSGQAGQ | 1.2
scFv clone No. 8, displayed on phage (scFv) scFv: AQAAELDIVLTQSPAIMSASPGEKVTISCSASSSVSYMYWYQQKPGSSPKPWIYRPSNLASGVPARFSGSGSGTSYSLTISSMEAEDAATYYCQQYHSYPPTFGAGTKLELKSSGGGGSGGGGGGSSRSSLEVHLVESGPELKKPGETVKISCKASGYTFTDYSMHWVNQAPGKGLKWMGWINTETGEPSYADDFKGRFAFSLETSASTAYLQINNLKNEDTATYFCATDYGDYFDYWGQGTTLTVSSAKTTPPSVTSGQAGQ | 1
scFv clone No. 23, displayed on phage (scFv) scFv: AQAAELDIVLTQSPAIMSASPGEKVTISCSASSSVSYMYWYQQKPGSSPKPWIYRPSNLASGVPARFSGSGSGTSYSLTISSMEAEDAATYYCQQYHSYPPTFGAGTKLELKSSGGGGSGGGGGGSSRSSLEVQLVESGPELKKPGETVKISCKASGYTFTDYSMHWVNQAPGKGLKWMGWINTETGEPSYADDFKGRFAFSLETSASTAYLQINNLKNEDTATYFCATDYGDYFDYWGQGTTLTVSSAKTTAPSVTSGQAGQ | 1.1
scFv clone No. 10, displayed on phage (scFv) scFv: AQAAELDIVLSQSPAIMSASPGEKVTISCSASSSVSYMYWYQQKPGSPPKPWIYRTSNLASGVPARFSGSGSGTSYSLTISSMEAEDAATYYCQQYHSYPPTFGAGTKLELKSSGGGGSGGGGGGSSRSSLEVKLVESGPELKKPGETVKISCKASGYTFTDYSMHWVNQAPGKGLKWMGWINTETGEPSYADDFKGRFAFSLETSASTAYLQINNLKNEDTATYFCATDCGDYFDYWGQGTTLTVSSAKTTPPSVTSGQAGQ | 1.2
scFv clone No. 7, displayed on phage (scFv) scFv: AQAAELDIVLTQSPAIMSASPGEKVTISCSASSSVSYMYWYQQKPGQPPRLLIYLVSNLESGVPARFSGSGSGTDFTLNIHPVEEEDAATYYCQQYHSYPPTFGAGTKLEIKSSGGGGSGGGGGGSSRSSLEVKLVESGPELKKPGETVKISCKASGYTFTDYSMHWVNQAPGKGLKWMGWINTETGEPSYADDFKGRFAFSLETSASTAYLQINNLKNEDTATYFCATDYGDYFDYWGQGTTLTVSSAKTTPPSVTSGQAGQ | 0.9

Each binder was assayed against human prominin-1 expressed in E. coli as a 6*HIS fusion protein (human) (UniProt O43490) (assay: ELISA on plate-coated human prominin-1, hybridoma secreted antibody diluted at 1:2000).

Binder | A450 [A450]
monoclonal antibody produced by Hybridoma Clone 7 (antibody, V domains shown) VH: EVKLVESGPELKKPGETVKISCKASGYTFTDYSMHWVNQAPGKGLKWMGWINTETGEPSYADDFKGRFAFSLETSASTAYLQINNLKNEDTATYFCATDYGDYFDYWGQGTTLTVSS VL: DIVLSQSPAIMSASPGEKVTISCSASSSVSYMYWYQQKPGSSPKPWIYRTSNLASGVPARFSGSGSGTSYSLTISSMEAEDAATYYCQQYHSYPPTFGAGTKLELK | 1.9
